This is an account of results in article PMC5484534 (Molecular cell, 2017).

Series [1] has as its system U2OS Bmal1-dLuc cells. The series is described as follows: Circadian period of U2OS Bmal1-dLuc cells with inhibitors. It counts as cell-based, human. The note with it: 0.3% DMSO, n = 3 replicates with 2 independent assays.
Series [2] relates to BMAL1. The note with it: screen for interacting partners; ref Lipton et al., 2015; cited from earlier work.
Series [3] relates to BMAL1 TAD. The series is described as follows: Cyclophilin acceleration of TAD switch isomerization by 15N-1H ZZ-exchange NMR. It counts as biochemical, mouse. The note with it: room temperature (22.68°C), 400 μM 15N BMAL1 TAD + 100 μM cyclophilin, 20 mM HEPES pH 7.0 (pH 7.5 for His6GST-PPIL3), 100 mM NaCl, 2 mM TCEP.
Series [4] relates to MLL1. The note with it: ref Wang et al., 2010; cited from earlier work.
Series [5] relates to W624-P625 imide bond of BMAL1 TAD. The experiment in a line: 15N-1H ZZ-exchange NMR kinetics of TAD switch isomerization. Set-up: species or system mouse.
Series [6] concerns Bmal1^−/−; Per2^Luc mouse fibroblasts. The series is described as follows: Circadian period of complemented Bmal1-/-. In kind it is cell-based. The note with it: stable complementation, 37°C, dexamethasone-synchronized.
Series [7] deals with cyclophilin family. The note with it: active site; ref Davis et al., 2010; cited from earlier work.
Series [8] has as its system Bmal1^−/−; Per2^Luc fibroblasts complemented with WT or trans-locked Bmal1. The series is described as follows: CsA-induced period change in complemented Bmal1-/-. The note with it: particularly at 10 μM CsA. It counts as cell-based, mouse.
The mark [9] stands for this setting: 25 °C, extrapolated from Eyring plot.
[10] abbreviates: 37 °C, extrapolated from Eyring plot.
Setting [11] is: 55 °C, 400 μM 15N BMAL1 TAD, 10 mM MES pH 6.5, 50 mM NaCl, 10% D2O.
Where [12] appears, read: 60 °C, 400 μM 15N BMAL1 TAD, 10 mM MES pH 6.5, 50 mM NaCl, 10% D2O.
Setting [13] is: 65 °C, 400 μM 15N BMAL1 TAD, 10 mM MES pH 6.5, 50 mM NaCl, 10% D2O.

Consider `CC1(C)[C@H](C(=O)O[C@H](C#N)c2cccc(Oc3ccccc3)c2)[C@@H]1C=C(Br)Br` [Deltamethrin], for which the “effect on circadian period” value in series [1] is given as “did not elicit a change in period”.

Consider “PPIA: peptidyl prolyl isomerase A, human cyclophilin”, for which the “co-immunoprecipitation with BMAL1” value in series [2] is on record as “co-immunoprecipitated with BMAL1”.

As for “PPIH: human nuclear cyclophilin [reference compound]”, the “activity on TAD switch isomerization, in words” value (“activity” below) in series [3] is listed as “significantly increased the rate of isomerization in BMAL1”.

With “PPIE: human nuclear cyclophilin [reference compound]”, the “activity” value in series [3] is on record as “significantly increased the rate of isomerization in BMAL1”. Further, the “binding to MLL1” value in series [4] is given as “binds to the histone methyltransferase MLL1 to modulate its activity”.

Turning to “PPIF: mitochondrial cyclophilin [reference compound]”, the “activity” value in series [3] is on record as “at least as active on the TAD as the top-ranked nuclear cyclophilins”.

In the case of “BMAL1 TAD: Mouse BMAL1 TAD (residues 579–626), recombinant”, the overall exchange lifetime result in series [5] (25 °C) is “approximately 10 minutes”. Moreover, the “Rate of isomerization cis➔trans” value was 0.00458 s⁻¹ in series [5] (setting [9]); 0.0233 s⁻¹ in series [5] (setting [10]); 0.215 s⁻¹ in series [5] (setting [11]); 0.382 s⁻¹ in series [5] (setting [12]); 0.667 s⁻¹ in series [5] (setting [13]). The “Rate of isomerization trans➔cis” value in series [5] (setting [9]) was 0.00264 s⁻¹; in series [5] (setting [10]), 0.0135 s⁻¹; in series [5] (setting [11]), 0.124 s⁻¹; in series [5] (setting [12]), 0.22 s⁻¹; in series [5] (setting [13]) it was 0.384 s⁻¹. Also, the “Time per isomerization event cis➔trans” value in series [5] (setting [9]) is 218.34 s; in series [5] (setting [10]), 42.92 s; in series [5] (55 °C), 4.65 s; in series [5] (60 °C), 2.62 s; in series [5] (65 °C), 1.50 s. Besides, the “Time per isomerization event trans➔cis” value in series [5] (setting [9]) was 378.78 s; in series [5] (setting [10]), 74.07 s; in series [5] (55 °C), 8.06 s; in series [5] (60 °C) it was 4.55 s; in series [5] (65 °C), 2.60 s. In series [5] (25 °C, in words), the “detection of isomerization by ZZ exchange” value is “too slow to be detected at room temperature”. In addition, in series [5] (ZZ exchange at increasing temperature), the “temperature at which exchange cross peaks first appeared” value was 55 °C.

Consider “wild type Bmal1: Flag-tagged mouse Bmal1 stably complemented in cells”, for which the circadian period entry in series [6] was “approximately 23 hours”.

For Cyclosporin A [CsA], the “effect on circadian period” value in series [1] is reported as “dose-dependent lengthening of circadian period with low doses”. Besides, in series [7], the “affinity for cyclophilin family” value was 5 to 500 nM. The “switch-independent effect on period” value in series [8] is reported as “Switch-independent changes in period”.
